# Results from patent publication US20050048548A1 (NEW ENGLAND BIOLABS, published 2005).
# Molecular target: T1, MBP-BirA fusion (E. coli biotin ligase / biotin holoenzyme synthetase with N-terminal maltose binding protein) (E. coli, UniProt P0AEX9 27-392 = MBP; P06709 1-321, limits assumed)
# T1 construct: also called BHS
# Assay: phage ELISA on plate-coated MBP-BirA, anti-M13-HRP detection
binder,measurement,value
"non-displaying M13 phage (no insert), without selenocysteine (other, bacteriophage M13, UniProt P69168 19-424, looked up, Control; whole phage, applied both after treatment with the biotinylating reagent and untreated; also called non-displaying phage) AETVESCLAKPHTENSFTNVWKDDKTLDRYANYEGCLWNATGVVVCTGDETQCYGTWVPIGLAIPENEGGGSEGGGSEGGGSEGGGTKPPEYGDTPIPGYTYINPLDGTYPPGTEQNPANPNPSLEESQPLNTFMFQNNRFRNRQGALTVYTGTVTQGTDPVKTYYQYTPVSSKAMYDAYWNGKFRDCAFHSGFNEDPFVCEYQGQSSDLPQPPVNAGGGSGGGSGGGSEGGGSEGGGSEGGGSEGGGSGGGSGSGDFDYEKMANANKGAMTENADENALQSDAKGKLDSVATDYGAAIDGFIGDVSGLANGNGATGDFAGSNSQMAQVGDGDNSPLMNNFRQYLPSLPQSVECRPFVFSAGKPYEFSIDCDKINLFRGVFAFLLYVATFMYVFSTFANILRNKES",binding result,no binding
